Experimental data published in US20250129167A1 (University of Texas, published 2025).
Blank lines part the entries; values can stand above or below the binder they belong to.

How the values were obtained:
[1] = biological target: PD-L1 on CHO-PD-L1 cells (Promega blockade system) (UniProt Q9NZQ7 19-290, limits assumed); assay: cell-based or functional assay
Cyno PD-L1-Fc = biological target: T1, Cyno PD-L1-Fc (cyno, UniProt G7PSE7 19-238); assay: ForteBio Octet, IgG on sensor, Fc-fusion antigen in solution (avid)
T1 construct: not shown: The Fc part of the fusion and any linker to it
Procedure: (§1) ForteBio KD measurements—ForteBio affinity measurements were performed on an Octet RED384 generally as previously described (sec, e.g., Estep et al., 2013). Briefly, ForteBio affinity measurements were performed by loading IgGs on-line onto AHQ sensors. Sensors were equilibrated off-line in assay buffer for 30 min and then monitored on-line for 60 seconds for baseline establishment. Sensors with loaded IgGs were exposed to 100 nM antigen for 3 minutes, and afterwards were transferred to assay buffer for 3 min for off-rate measurement. For monovalent affinity assessment Fabs were used instead of IgGs. For this assessment the unbiotinylated Fc fusion antigen was loaded on-line onto the AHQ sensors. Sensors were equilibrated off-line in assay buffer for 30 min and then monitored on-line for 60 seconds for baseline establishment. Sensors with loaded antigen were exposed to 100 nM Fab for 3 minutes, and afterwards they were transferred to assay buffer for 3 min for off-rate measurement. All kinetics were analyzed using the 1:1 binding model.

Mouse PD-L1-Fc [2] = biological target: T2, Mouse PD-L1-Fc (mouse, UniProt Q9EP73 19-238, limits assumed); assay: as above
T2 construct: also called murine PD-L1; not shown: Fc part of the fusion
Procedure: as §1

Human PD-L2-Fc [3] = biological target: T3, Human PD-L2-Fc (human, UniProt Q9BQ51 20-220); assay: as above
T3 construct: not shown: Fc part of the fusion
T3 sequence: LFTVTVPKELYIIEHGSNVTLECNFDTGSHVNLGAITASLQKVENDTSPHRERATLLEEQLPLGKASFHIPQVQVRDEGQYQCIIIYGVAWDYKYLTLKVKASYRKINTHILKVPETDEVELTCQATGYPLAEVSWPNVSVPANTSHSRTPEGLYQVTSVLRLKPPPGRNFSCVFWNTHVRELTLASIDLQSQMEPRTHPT
Procedure: as §1

Cyno PD-L2-Fc = biological target: T4, Cyno PD-L2-Fc (cyno, UniProt A0A2K5U5Z4 20-219); assay: as above
T4 construct: not shown: Fc part of the fusion
T4 sequence: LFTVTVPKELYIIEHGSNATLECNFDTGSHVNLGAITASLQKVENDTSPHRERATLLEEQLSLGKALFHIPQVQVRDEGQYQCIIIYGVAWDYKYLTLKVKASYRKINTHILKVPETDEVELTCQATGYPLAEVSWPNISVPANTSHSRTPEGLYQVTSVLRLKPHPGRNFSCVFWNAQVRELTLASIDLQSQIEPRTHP
Procedure: as §1

Mouse PD-L2-Fc [4] = biological target: T5, Mouse PD-L2-Fc (mouse, UniProt Q9WUL5 20-219, limits assumed); assay: as above
T5 construct: also called murine PD-L2; not shown: Fc part of the fusion
T5 sequence (looked up): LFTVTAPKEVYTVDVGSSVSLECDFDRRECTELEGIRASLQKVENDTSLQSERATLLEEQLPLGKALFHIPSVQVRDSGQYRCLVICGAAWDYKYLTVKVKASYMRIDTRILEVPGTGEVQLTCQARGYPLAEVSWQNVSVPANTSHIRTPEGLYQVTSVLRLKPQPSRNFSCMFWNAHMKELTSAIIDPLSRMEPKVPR
Procedure: as §1

Human PD-L1-Fc [5] = biological target: T6, Human PD-L1-Fc (human, UniProt Q9NZQ7 19-238); assay: as above
T6 construct: not shown: Fc part of the fusion
Procedure: as §1

Human PD-L2-Fc [6] = biological target: T3, Human PD-L2-Fc; assay: ForteBio Octet, Fc-fusion antigen on sensor, Fab in solution (monovalent)
Procedure: as §1

Human PD-L1-Fc [7] = biological target: T6, Human PD-L1-Fc; assay: as above
Procedure: as §1

[8] = biological target: T7, PD-L2 on CHO-PD-L2 cells (Promega blockade system) (UniProt Q9BQ51 20-273, limits assumed); assay: cell-based or functional assay
T7 sequence (looked up): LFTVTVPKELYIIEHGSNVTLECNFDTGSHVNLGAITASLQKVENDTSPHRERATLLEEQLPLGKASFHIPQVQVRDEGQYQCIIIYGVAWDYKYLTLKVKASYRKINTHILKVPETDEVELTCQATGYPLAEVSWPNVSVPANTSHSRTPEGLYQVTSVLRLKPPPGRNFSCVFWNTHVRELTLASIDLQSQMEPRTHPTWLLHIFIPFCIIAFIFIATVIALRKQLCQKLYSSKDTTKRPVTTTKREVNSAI

Mouse PD-L2-Fc [9] = biological target: T5, Mouse PD-L2-Fc; assay: column 'Species cross-reactivity'
[10] = biological target: PD-L1 on CHO-PD-L1/PDL2 cells (Promega blockade system); assay: cell-based or functional assay
[11] = biological target: PD-L2 on CHO-PD-L1/PDL2 cells (Promega blockade system); assay: cell-based or functional assay
Mouse PD-L1-Fc [12] = biological target: T2, Mouse PD-L1-Fc; assay: column 'Species cross-reactivity'

T1 sequence (G7PSE7 entry or part of it limits assumed): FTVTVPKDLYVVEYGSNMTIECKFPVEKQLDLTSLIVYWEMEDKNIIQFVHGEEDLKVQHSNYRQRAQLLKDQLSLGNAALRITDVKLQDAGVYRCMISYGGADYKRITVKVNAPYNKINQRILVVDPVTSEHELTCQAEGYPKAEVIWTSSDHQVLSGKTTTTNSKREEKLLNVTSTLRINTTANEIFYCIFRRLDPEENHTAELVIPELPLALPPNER
T2 sequence (Q9EP73 19-238 limits assumed): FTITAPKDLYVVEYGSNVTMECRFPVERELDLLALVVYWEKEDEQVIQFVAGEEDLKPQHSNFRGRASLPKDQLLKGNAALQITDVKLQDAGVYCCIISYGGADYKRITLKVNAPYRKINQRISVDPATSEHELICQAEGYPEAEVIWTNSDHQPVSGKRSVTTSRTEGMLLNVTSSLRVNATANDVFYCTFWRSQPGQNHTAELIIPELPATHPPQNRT

binding result (Human PD-L2-Fc [6]): no binding (tested: 100 nM)
Kd (Human PD-L1-Fc [7]): 0.823 nM
B2: ADI-20230 Fab (Fab, V domains shown)
VH: QVQLVQSGAEVKKPGSSVKVSCKASGGTFSSYFISWVRQAPGQGLEWMGQIIPNVGTANYAQKFQGRVTITADESTSTAYMELSSLRSEDTAVYYCARDQTAKAHLVWGQGTLVTVSS
VL: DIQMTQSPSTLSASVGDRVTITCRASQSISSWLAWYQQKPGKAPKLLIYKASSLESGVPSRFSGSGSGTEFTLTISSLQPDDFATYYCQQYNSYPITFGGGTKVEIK
notes: also called cLC-PDL1 (22726) Fab

EC50 (read off the curve); luciferase fold induction, Promega CHO-PD-L2 / PD-1 Jurkat assay [Cont'd] [8]: ~0.2 nM
binding result (Mouse PD-L2-Fc [9]): binds
binding result (Cyno PD-L1-Fc): no binding (tested: 100 nM)
binding result (Mouse PD-L1-Fc [2]): no binding (tested: 100 nM)
Kd (Human PD-L2-Fc [3]): 0.487 nM
Kd (Cyno PD-L2-Fc): 0.253 nM
binding result (Human PD-L1-Fc [5]): no binding (tested: 100 nM)
B3: ADI-20241 (antibody, V domains shown)
VH: QVQLVQSGAEVKKPGSSVKVSCKASGGTFSEYAIVWVRQAPGQGLEWMGGIIPLFGTANYAQKFQGRVTITADESTSTAYMELSSLRSEDTAVYYCARPLDRRIVAFDIWGQGTMVTVSS
VL: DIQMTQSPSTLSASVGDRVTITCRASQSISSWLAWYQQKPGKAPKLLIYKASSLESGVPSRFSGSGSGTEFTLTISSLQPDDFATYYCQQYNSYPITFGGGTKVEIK
notes: Vk1-05 common light chain; also called PD-L2-C2-1; cLC-PDL2 (22726)

Kd (Human PD-L2-Fc [6]): 1.99 nM
binding result (Human PD-L1-Fc [7]): no binding (tested: 100 nM)
B4: ADI-20241 Fab (Fab, V domains shown)
VH: B3 VH
VL: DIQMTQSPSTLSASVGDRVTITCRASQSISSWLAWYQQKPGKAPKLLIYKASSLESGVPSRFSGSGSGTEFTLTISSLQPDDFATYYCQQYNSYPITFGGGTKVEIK
notes: also called cLC-PDL2 (22726) Fab

EC50 (read off the curve); luciferase fold induction, Promega CHO-PD-L1/PD-L2 / PD-1 Jurkat assay, combined blockade of PD-L1 and PD-L2 [Cont'd] [10]: ~0.6 nM
EC50 (read off the curve); luciferase fold induction, Promega CHO-PD-L1/PD-L2 / PD-1 Jurkat assay, combined blockade of PD-L1 and PD-L2 [Cont'd] [11]: ~0.6 nM
B5: DiPDL candidate C2 (bispecific antibody, V domains shown)
VH 1: B2 VH
VH 2: B3 VH
VL: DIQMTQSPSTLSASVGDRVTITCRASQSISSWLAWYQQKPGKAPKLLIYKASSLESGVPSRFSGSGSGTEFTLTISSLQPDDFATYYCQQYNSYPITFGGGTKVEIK

EC50 (read off the curve); luciferase fold induction, Promega CHO-PD-L1/PD-L2 / PD-1 Jurkat assay, combined blockade of PD-L1 and PD-L2 [Cont'd] [10]: ~0.2 nM
EC50 (read off the curve); luciferase fold induction, Promega CHO-PD-L1/PD-L2 / PD-1 Jurkat assay, combined blockade of PD-L1 and PD-L2 [Cont'd] [11]: ~0.2 nM
B9: DiPDL candidate C1 (bispecific antibody, V domains shown)
VH 1: QVQLVQSGAEVKKPGASVKVSCKASGGTFRSYAIQWVRQAPGQGLEWMGWIIPGFGTANYAQKFQGRVTITADESTSTAYMELSSLRSEDTAVYYCARELSHGGLSYWGQGTLVTVSS
VH 2: QVQLVQSGAEVKKPGSSVKVSCKASGGTFSSHAISWVRQAPGQGLEWMGGIIPIFGWALYAQKFQGRVTITADESTSTAYMELSSLRSEDTAVYYCARPGDHRASHFDYWGQGTLVTVSS
VL: DIQMTQSPSSVSASVGDRVTITCRASQGISSWLAWYQQKPGKAPKLLIYAASSLQSGVPSRFSGSGSGTDFTLTISSLQPEDFATYYCQQANSFPITFGGGTKVEIK

binding result (Human PD-L2-Fc [6]): no binding (tested: 100 nM)
Kd (Human PD-L1-Fc [7]): 0.833 nM
B10: ADI-20225 Fab (Fab, V domains shown)
VH: B9 VH 1
VL: B9 VL
notes: also called cLC-PDL1 (22731) Fab

Further lines, the binder ahead of its results:

B1: ADI-20230 (antibody, V domains shown)
VH: B2 VH
VL: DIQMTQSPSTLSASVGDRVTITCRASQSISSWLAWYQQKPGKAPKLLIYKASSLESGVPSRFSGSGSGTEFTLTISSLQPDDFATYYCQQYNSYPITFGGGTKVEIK
notes: Vk1-05 common light chain; also called PD-L1-C2-1; cLC-PDL1 (22726)
EC50 (read off the curve); luciferase fold induction, Promega CHO-PD-L1 / PD-1 Jurkat assay [1]: ~0.1 nM
Kd (Cyno PD-L1-Fc): 0.264 nM
binding result (Mouse PD-L1-Fc [2]): no binding (tested: 100 nM)
binding result (Human PD-L2-Fc [3]): no binding (tested: 100 nM)
binding result (Cyno PD-L2-Fc): no binding (tested: 100 nM)
binding result (Mouse PD-L2-Fc [4]): no binding (tested: 100 nM)
Kd (Human PD-L1-Fc [5]): 0.205 nM

B6: ADI-20236 (antibody, V domains shown)
VH: B9 VH 2
VL: B9 VL
notes: Vk1-12 common light chain; also called PD-L2-C1-1; cLC-PDL2 (22731)
EC50 (read off the curve); luciferase fold induction, Promega CHO-PD-L2 / PD-1 Jurkat assay [Cont'd] [8]: ~0.2 nM
binding result (Mouse PD-L2-Fc [9]): binds
binding result (Cyno PD-L1-Fc): no binding (tested: 100 nM)
binding result (Mouse PD-L1-Fc [2]): no binding (tested: 100 nM)
Kd (Human PD-L2-Fc [3]): 0.416 nM
Kd (Cyno PD-L2-Fc): 0.64 nM
binding result (Human PD-L1-Fc [5]): no binding (tested: 100 nM)

B7: ADI-20225 (antibody, V domains shown)
VH: B9 VH 1
VL: B9 VL
notes: Vk1-12 common light chain; also called PD-L1-C1-1; cLC-PDL1 (22731)
EC50 (read off the curve); luciferase fold induction, Promega CHO-PD-L1 / PD-1 Jurkat assay [1]: ~0.1 nM
binding result (Mouse PD-L1-Fc [12]): binds
Kd (Cyno PD-L1-Fc): 0.237 nM
binding result (Human PD-L2-Fc [3]): no binding (tested: 100 nM)
binding result (Cyno PD-L2-Fc): no binding (tested: 100 nM)
binding result (Mouse PD-L2-Fc [4]): no binding (tested: 100 nM)
Kd (Human PD-L1-Fc [5]): 0.223 nM

B8: ADI-20236 Fab (Fab, V domains shown)
VH: B9 VH 2
VL: B9 VL
notes: also called cLC-PDL2 (22731) Fab
Kd (Human PD-L2-Fc [6]): 0.541 nM
binding result (Human PD-L1-Fc [7]): no binding (tested: 100 nM)
